Reference: a protein production outcome set (Wang et al. 2014)

Assay: label from the status in PepcDB records

For “SIDAICAYFYAGYDVPRVLNEGGWFFLENILLIKSVGGRKPPLTDNKLRIKFLQTTKMTHVPNREPSSLFRFAAFSMIENKTINSSTVHDAYGIVVRVGNITRPDFVPQASENTILSQFLEFEIKNSWGKSLICVASGYTCELFVQLWRELGLELGYHWNFGMNPTICVLRFWNVDDHEGRQCLISHNGASKITFNQSYPEINMDRVRTQFLQRMQTPELGEVVDEN”, the protein production was “not failed”.
With “MTETRIKQLLGQMSLEEKVSILSGEDFWSVAAVERLGIGKLRVSDGPNGARGGGSLVGGVKSASFPVGIAIGSTWNVELVREIGAALADEVKSKGAHMLLAPTVNIHRSVTNGRNFECYSEDPILSAELAVSYITGLQEQGIGATIKHFVGNESEIERTTISSEVDERALREIYLIPFEWAVRKAHTWGIMSSYNRLNGTFTSEHDWLLGHVLRDEWHYDGIVMSDWFGSHSTAETVNAGLDLEMPGPTRDRGQKLVDAVNAGEVSLETLDRRVLAMLRLMERVGSLDDHRPHVEKAEDRPEHRALIRRAGAEAAVLLKNDGVLPLEGSGKIAVIGPNAKTAQIMGGGSAQLNAHYRISPWQGLVAALGEERLTYAKGCTNDRFEPLLRGVLDVDYFDNLTLSGEPVHRGTIEDAQTFWIGQVAEGKVDALHFSARVRGRFTPEASGEHNVGIYAAGFAKVYIDGKLVADAWTNWTKGRTFFEEGCDEVVGTITLEAGHAYDVTIEFCTKDFATLGLAAFACGIGHPLGDDAIAAAVEAARTAETALLFIGRNGEWDTEGSDLPAIVLPGRQNELVEAVAAVNPRTVVVLQSGGPVEMPWAGQVAAVVSAWYPGQEAGNAIADVLTGLAEPGGRLPQTFPVRWADNPAHSQDREVYPGLEGKVRYEESIFVGYRHYDKLGLTPLYPFGFGLGYTSFALSDLSVDASNFETEGTVSVTLNVTNTGDRVGSTVVQLYVSDTLSSAPRPSKELKAFAKVKLEAGASRGVTLSLDARAFAFFDAGSKSWLVEPGDFILRVGQSSADLPLTARITRTGAMHLPL” the protein production was “failed”.
For “AIREFNTKEKVFNEFTAVFDVLNHLPAFAKLHLANSMSVRYANTLGISQRNAEVFANRGTSGIDGVISTAYGYALKTSQLVTIITGDLAFFYDRNAFWNNYKPSNLRVVLLNNHGGGIFRMIDGPSALPELDELFETKQTLSARYLATEHGLEYTLCKNLNGLNQALESFFQPSMFGKILEIETDSVKN”, the protein production was “failed”.
In the case of “MFCTFFEKHHRKWDILLEKSTGVMEAMKVTSEEKEQLSTAIDRMNEGLDAFIQLYNESEIDEPLIQLDDDTAELMKQARDMYGQEKLNEKLNTIIKQILSISVSEEGEKELKSNRIFISWLRWPLFIRIGVIILCLILLFGQIIYILEPKQFTSVFEGIWWAVVTVSTVGYGDYVPHTPLGQAAGILLILSGASFVTAYFATLSAAAFSRQHRYIEGKVAYKGRDHIILIGWNEKTNRLLKDLQLGAPSKTVVLIDESLTEGPLIENVHFIRGHAADDGTLKRANITEAESVMITADQYKSETDADMLSVLTLLSVKGLNPLAYCIVEILTDRFVTNAERAGANQIIGTSEFISRAMLQHYQVKLRRLNSRTESS”, the protein production is reported as “failed”.
With “MFRIKQLAWAMGCVSLMSGCTLYPWYQNKAGQAVNVKPVMEVRHAIRSADALYQLGRYYQAKVDYAEAIAAYEKALEADPRHVEAHNGLGVAHCLLDRHELALQYFRKAIGMAPLAAHLHNNLGYAHLVHGQEAEAVSAFERALLLEPHNQRARRHLAAVYKKAGLHDKAAALTVAPSGAPVGATKAPPTAPIPTPAPGTPAGTPAGIPSAAISAISPPMAAAPGEKQKLSCSAAARLLQVTPGVFEFRMAETEAMTAMPSGKIIGRTAPPQDSGKFSGQDIRIEVSNGNGLPGMARQVSDFLQQNGFARARLTDRQPYQQALTEIHYRPGHSGVAEEISRLMPGGSGVPTVESYNLRRDIHVRVMLGKDAVRQVAHLESPQKVQIAQGTAGAVE” the protein production was “failed”.
With “MLHIDDAMIEDAVTPQAAQEVLHAAFLDFGRGSAAMQRRVRTEAGGVKLSTLGAVIPGQGVAGAKVYTTIKGQFQFVILLFSAADGRPLATCDAGTLTRKRTAACTVLAAGALARLRSSVLGLFGAGTQGVEHAAQLSARFALEAILVHDPHASPEVVERIGRRCGVPARMAAPADIAAQADIVVTATRSATPLFAGQALRAGAFVGAIGSSLPHTRELDDEVLRRARAVVVEWREQTLSEAGDLVLAAPDTGLDAKVVELADVLAGRATARQADEDIVIYKSVGVGLEDVALAGYAYRRLAAQRGWPAP” the protein production was “failed”.
With “MTVANWQVRDLTLILRTGEMQSRLEQARTDFGALLPETVYFQPSAIRLGEFDDEYILTRQELVYVYLREDIARQCALRRHLPSNSSNSGIMATAIPPWLMDARRLNRVMQERCDQGGLVHYYQGPHTNQFFLAIMPSNCFVRFGTDVINNENYGFYARGGNYTEEGEDDDDEMDDEDETGGAETRDSQTGNLINYPIIALGSCHLSALEHHHHHH” the protein production was “not failed”.
In the case of “MQRTAVLPYVQLLKPITWFAPMWAFGCGLISSGLPVWDRWPVIALGVLLCGPLVCGTSQAVNDWFDRHVDAINEPDRPIPSGRIPGRVGLYIAIGWTVLSLAVAWVLGPWVFGAAIFGLALAWAYSAPPFRLKGNGWWGNSAVGLCYEGLPWFTGAAVIAGALPDTRIVLLAVLYSIGAHGIMTLNDFKAVEGDIRMGVRSLPVQLGVAPAARLACAVMAVPQMVVIGLVASWDRPYHAGAVGLLLLAQFVLMARLLKRPRELAPWYNATGTTLYVIGMMVSAFALAPLIGAVELAPLIGAAP”, the protein production is reported as “failed”.
In the case of “MARRKRRNFSKQASEILNEYFYSHLSNPYPSEEAKEELARKCGITVAQVSNWFGNKRIRYKKNIGKAQEEANLYAAKKAAGASP”, the protein production is reported as “not failed”.
With “MYKRRVDPELEDLTSRAREALALFISISLRDNTELNLVVPNGPSWLSHVDKKDLYLNDETLKKITDILVAKDVTGNYNIVNVAIAAAPQHSQKRFVIYIKTSIYVEIVVIGNMKSNLTLIADGQDSTIITFNLSSSNSKRTFNTATFASNGDGFIRVDMCFRNTTWPVKGPVVTLRVNGDMSIIYRCRVEEYQDALYPHKNRQCYREYFLMDTVDFICGNAAAVFQFCQIVHMDG” the protein production was “not failed”.
With “VMQMDRQPLVDPFGDYFQEFLSNAQNGQFFTPFGVCELMNQLITAPKVSDQPKQGDRRVLDPACGSGRLLLSAAQKDRALTFVGIDISYTCCLMTIINLCLNSLNGEVLHMNALTDQYWHRWL” the protein production was “failed”.
For “MSVDPMTYEAQFFGFTPQTCMLRIYIAFQDYLFEVMQAVEQVILKKLDGIPDCDISPVQIRKCTEKFLCFMKGHFDNLFSKMEQLFLQLILRIPSNILLPEDKCKETPYSEEDFQHLQKEIEQLQEKYKTELCTKQALLAELEEQKIVQAKLKQTLTFFDELHNVGRDHGTSDFRESLVSLVQNSRKLQNIRDNVEKESKRLKIS”, the protein production was “failed”.
With “MFITLLLFFLSAAIIYFACEFFVNGVEWVGHRFKLGATATGTVLAAFGTALPESAVTFMAVVFGTTPEQKDIGVGAAMGGPLVLATLAYAVVGLTLARTRRAGSSQVEAAINADQRRLARDQAWFMGVFVFKVALGLLAFAWKPWLGLLFLAVYGLYVKRELTREEECLDCEDLEPLKLRPRDPSPSLFWACAQTVLALAVIALASHVFVRQIELLGLAMGASPHVAALLLAPVATELPEIMNALIWVRQGKERLALANISGAMMIQATIPSAMMIQATIPSALGIFLTPWLLDAPLLAAGGFTLAAILLLWLRFRRAAMSVPALSAVGGLYALFAGYLGWHFYA” the protein production was “failed”.
For “MISSMNFWRCRCSKDDAEQSMLYSYNNGFLGFSAKLNSTQAASLAKLNQVITVFKSKSLKLHTTRSWDFLGLAVDNARRTPPPQLAYGSDIVVGIFDTGLFISLKLLLLSILGIWPESESFRETPEAKPIPSSWNGKCVGGEDFDPSVHCNRKLIGARFYLRGFEETYGTIDFTRDPEYRSPRDYLGHGTHTASTAVGSVVRNVSGFFGLGRGTARGGAPLARLAVFKTCWGKDLEGVCTEADILAAFDDAIHDGVHVISASFGYSPPLSPFFESSADIGAFHAAERGISVVFSTGNDGPDPGVVQNVAPWAVSVAASTVDRSFPTRIVIDGSFTLTGQSLISQEITGTLALATTYFNGGVCKWENWMKKLANETIILCFSTLGPVQFIEEAQAAAIRANALALIFAASPTRQLAEEVDMIPTVRVDILHGTRIRNYLARSPTVPMVKIGPSKTVIGETTAPSVAYFSSRGPSSLSPDILKPDITAPGIGILAAWPPRTPPTLLPGDHRSIEWNFQSGTSMSCPHVAGVMALLQSAHPDWSPSAIRSAIMTTAYTRDTSYDLILSGGSMKSTDPFDIGAGHINPLKAMDPGLVYNTRTDDYVLFMCNIGYTDQEIKSMVLHPEPSTTCLPSHSYRTNADFNYPSITIPSLRLTRTIKRTVSNVGPNKNTVYFVDIIRPVGVEVLIWPRILVFSKCQQEHSYYVTFKPTEIFSGRYVFGEIMWTNGLHRVRSPVVVFLSNAGFLASS”, the protein production was “failed”.
